These results are taken from US9090994B2.

The term Kd denotes the concentration at which binding is half-saturated. In general, koff refers to a measure of how fast the partners let go of each other. By kon is commonly meant the second-order rate constant of association.

Assay [1] addresses c-Myc-containing recombinant protein. The assay is described as follows: SPR (Biacore T200), c-Myc-containing recombinant protein immobilised, soluble Fab injected at 5-80 nM, 1:1 Langmuir fit. A general note: SPR reads the build-up and loss of mass on a sensor chip optically.
For assay [2] the target is unchanged. The assay is described as follows: SPR; fold change of KD, WT is itself the reference.

B1: parental murine Fab of aM (murine monoclonal antibody raised against c-Myc peptide) (Fab, V domains shown)
VH: QIQLVQSGPELKKPGETVRISCKASGYTFTTAGMQWVQKMPGKGLKWIGWINTHSGVPKYAEDFKGRFAFSLETSASTAYLQMTNLNNEDTATYFCARGYGKGGYFAMDYWGQGTSVTVSS
VL: DVVMTQIPFSLPVSLGDQASISCRSSQSLVHSNGNTYLHWYVQKPGQSPKLLIYKVSNRFSGVPDRFSGSGSGTYFTLKISRVEAEDLGVYFCSQSTRVPWTFGGGTKLEIK
On to B1, for which, in assay [1], the Kd was found to be 110 nM, the koff stood at 0.018 s⁻¹ and the kon worked out at 160000 M⁻¹ s⁻¹. In assay [2], the Fold change turned out to be 1 fold.
